Assay results reported in US20200181677.

How the values were obtained:
[1] = system: peptide #14 (PKCα pseudosubstrate), alanine-containing
[2] = system: peptide #14, aspartic acid-containing (phosphomimetic)
[3] = system: peptide #11 (Optimized PKCβ Sub.), alanine-substituted, in PKCα FRET sensor

With human PKCα catalytic domain the “ATP turnover of the catalytic domain for serine-containing peptide #14 with equimolar competitor peptide” value [1] was “the alanine-substituted peptide was significantly better at inhibiting catalytic activity”, the “basal kinase activity of the sensor (10 nm vs 30 nm ER/K linker) for the same substrate peptide” value [1] was “the sensor with the 30 nm linker had significantly higher activity than the 10 nm linker for the same substrate peptide” and the “ATP turnover of the catalytic domain for serine-containing peptide #14 with equimolar competitor peptide” value [2] was “the alanine-substituted peptide was significantly better at inhibiting catalytic activity”. For the same substance, the “kinase activity of the 10 nm peptide FRET sensor for the same substrate” value [3] was “the higher affinity peptide sensor (#11) had a much lower activity than the lower affinity peptide sensor (#8)”.
